Results as given in patent publication US20200299373A1 (NEURACLE SCIENCE, published 2020).
Where no end group is shown, it is not given here.

T1: FAM19A5 epitope fragment F1 conjugated to BSA (human, also: conjugated to BSA)
T1 peptide: QLAAGTCEIVTLDR

T2: FAM19A5 epitope fragment F4 conjugated to BSA (human, conjugated to BSA)
T2 peptide: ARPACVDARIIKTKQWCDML

T3: FAM19A5 epitope fragment F2 conjugated to BSA (human, conjugated to BSA)
T3 peptide: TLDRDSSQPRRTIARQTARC

T4: FAM19A5 epitope fragment F6 conjugated to BSA (human, conjugated to BSA)
T4 peptide: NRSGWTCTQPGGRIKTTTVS

T5: FAM19A5 epitope fragment F5 conjugated to BSA (human, conjugated to BSA)
T5 peptide: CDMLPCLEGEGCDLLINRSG

T6: FAM19A5 epitope fragment F3 conjugated to BSA (human, conjugated to BSA)
T6 peptide: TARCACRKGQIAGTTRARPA

T7: FAM19A5 mutant M6 (human)
T7 construct: Expressed on phage; Region EP6 is replaced with the FAM19A1-4 consensus
T7 chain: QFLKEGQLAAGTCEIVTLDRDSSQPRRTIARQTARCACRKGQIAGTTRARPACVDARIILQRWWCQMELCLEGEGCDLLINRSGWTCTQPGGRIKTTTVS

T8: FAM19A5 mutant M2 (human)
T8 construct: Expressed on phage; It has substitutions at amino acid residues 21-25 (EP2)
T8 chain: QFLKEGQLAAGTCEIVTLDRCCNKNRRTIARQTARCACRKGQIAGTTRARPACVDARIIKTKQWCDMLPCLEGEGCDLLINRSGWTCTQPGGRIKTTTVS

T9: FAM19A5 mutant M3 (human)
T9 construct: Expressed on phage; Region EP3 is replaced with the FAM19A1-4 consensus
T9 chain: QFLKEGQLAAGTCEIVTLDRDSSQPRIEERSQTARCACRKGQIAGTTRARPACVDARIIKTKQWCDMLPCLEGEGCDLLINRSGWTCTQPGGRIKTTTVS

T10: FAM19A5 mutant M7 (human)
T10 construct: Expressed on phage; Region EP7 is replaced with the FAM19A1-4 consensus
T10 chain: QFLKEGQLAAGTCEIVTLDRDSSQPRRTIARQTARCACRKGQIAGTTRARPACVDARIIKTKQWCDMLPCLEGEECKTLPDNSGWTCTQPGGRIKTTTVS

T11: FAM19A5 mutant M1 (human)
T11 construct: Region EP1 is replaced with the FAM19A1-4 consensus; The fusion to the phage protein is not described
T11 chain: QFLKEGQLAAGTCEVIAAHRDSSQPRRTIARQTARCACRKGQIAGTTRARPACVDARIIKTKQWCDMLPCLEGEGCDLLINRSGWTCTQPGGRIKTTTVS

T12: FAM19A5 mutant M4 (human)
T12 construct: Expressed on phage; Region EP4 is replaced with the FAM19A1-4 consensus
T12 chain: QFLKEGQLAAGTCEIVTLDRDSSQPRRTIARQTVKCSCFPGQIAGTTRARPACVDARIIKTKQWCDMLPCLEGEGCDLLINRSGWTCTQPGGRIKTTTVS

T13: FAM19A5 mutant M8 (human)
T13 construct: Expressed on phage; Region EP8 is replaced with the FAM19A1-4 consensus
T13 chain: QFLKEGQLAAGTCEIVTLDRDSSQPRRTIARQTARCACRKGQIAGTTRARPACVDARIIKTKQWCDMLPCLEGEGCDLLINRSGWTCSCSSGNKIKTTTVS


Key:
[1] = biological target: T1, FAM19A5 epitope fragment F1 conjugated …; assay: ELISA, antigen coated on the plate, antibody in solution, absorbance at 492 nm
Procedure: (§1) Overlapping peptide fragments (F1-F6, See FIG. 1) of the human FAM19A5 protein were synthesized and conjugated to BSA. Binding of the different anti-FAM19A5 antibodies to the BSA-conjugated peptide fragments F1-F6 was determined by ELISA assay. Briefly, FAM19A5 fragment F1-F6 (diluted to 1 μg/mL in 50 mM carbonate buffer (Biosesang) or to 20 μg/mL for high concentration analysis) were used to coat the wells of 96-well immuno plates (Thermo Scientific) (100 μL/well) overnight at 4° C. and then subsequently washed twice in 1×PBS. The plates were then blocked with the blocking buffer (100 μL/well) for 1 hour at room temperature. During the 1-hour incubation, the relevant anti-FAM19A5 antibodies were diluted to 1 μg/mL (or 20 μg/mL for high concentration analysis) in the diluent buffer. Once the plates were washed (2× using 1×PBS), the diluted anti-FAM19A5 antibodies were added to the appropriate wells, and the plates were incubated at room temperature for 1 hour. The plates were subsequently washed for a total of five times using the washing buffer. Next, the ODP substrate (prepared by dissolving one ODP tablet (0-phenylenediamine Dihydrochloride, Thermo) into 9 mL of sterilized deionized water and 1 mL of 10× stable Peroxide Stable buffer (Theromo)) was added to each of the wells, and the color change reaction was allowed to occur for 10 minutes. This reaction was stopped by adding 100 μL of 2N H2SO4 (Daejung) to the wells. The absorption value of each of the wells was detected at 492 nm using a 96-well microplate reader (Molecular Device).

[2] = biological target: T2, FAM19A5 epitope fragment F4 conjugated …; assay: as above
Procedure: as §1

[3] = biological target: T3, FAM19A5 epitope fragment F2 conjugated …; assay: as above
Procedure: as §1

[4] = biological target: T4, FAM19A5 epitope fragment F6 conjugated …; assay: as above
Procedure: as §1

[5] = biological target: T5, FAM19A5 epitope fragment F5 conjugated …; assay: as above
Procedure: as §1

[6] = biological target: T6, FAM19A5 epitope fragment F3 conjugated …; assay: as above
Procedure: as §1

[7] = biological target: T1, FAM19A5 epitope fragment F1 conjugated …; assay: ELISA on peptide-BSA coated on the plate
Procedure: as §1

[8] = biological target: T2, FAM19A5 epitope fragment F4 conjugated …; assay: ELISA on peptide-BSA coated on the plate
Procedure: as §1

[9] = biological target: T3, FAM19A5 epitope fragment F2 conjugated …; assay: ELISA on peptide-BSA coated on the plate
Procedure: as §1

[10] = biological target: T4, FAM19A5 epitope fragment F6 conjugated …; assay: ELISA on peptide-BSA coated on the plate
Procedure: as §1

[11] = biological target: T6, FAM19A5 epitope fragment F3 conjugated …; assay: ELISA on peptide-BSA coated on the plate
Procedure: as §1

[12] = biological target: T7, FAM19A5 mutant M6; assay: ELISA with phage-displayed FAM19A5 mutants
[13] = biological target: T8, FAM19A5 mutant M2; assay: ELISA with phage-displayed FAM19A5 mutants
[14] = biological target: T9, FAM19A5 mutant M3; assay: ELISA with phage-displayed FAM19A5 mutants
[15] = biological target: T10, FAM19A5 mutant M7; assay: ELISA with phage-displayed FAM19A5 mutants
[16] = biological target: T11, FAM19A5 mutant M1; assay: ELISA with phage-displayed FAM19A5 mutants
[17] = biological target: T12, FAM19A5 mutant M4; assay: ELISA with phage-displayed FAM19A5 mutants
[18] = biological target: T13, FAM19A5 mutant M8; assay: ELISA with phage-displayed FAM19A5 mutants
[19] = biological target: T5, FAM19A5 epitope fragment F5 conjugated …; assay: ELISA on peptide-BSA coated on the plate
Procedure: as §1

[20] = biological target: T3, FAM19A5 epitope fragment F2 conjugated …; assay: ELISA on coated BSA-conjugated peptide
Procedure: as §1, with “Next, the ODP substrate (prepared by dissolving one ODP tablet (0-phenylenediamine Dihydrochloride, Thermo) into 9 mL of sterilized deionized water and 1 mL of 10× stable Peroxide Stable buffer (Theromo)) was added to each of the wells, and the color change reaction was allowed to occur for 10 minutes. This reaction was stopped by adding 100 μL of 2N H2SO4 (Daejung) to the wells.” left out

Binder	O.D. [1]	O.D. [2]	O.D. [3]	O.D. [4]	O.D. [5]	O.D. [6]	binding result [7]	binding result [8]	binding result [9]	binding result [10]	binding result [11]	binding result [12]	binding result [13]	binding result [14]	binding result [15]	binding result [16]	binding result [17]	binding result [18]	binding result [19]	binding result [20]
anti-FAM19A5 antibody 1-65 (antibody, V domains shown) VH: AVTLDESGGGLQTPGGALSLVCKASGFTFSSYQMGWVRQAPGKGLEWVGVINKSGSDTSYGSAVKGRATISRDNGQSTVRLQLNNLRAEDTGTYFCAKGSASYITAATIDAWGHGTEVIVSS VL: ALTQPSSVSANPGETVKITCSGGGSSGYGYGWYQQKSPSSAPLTVIYWNDKRPSDIPSRFSGSKSGSTHTLTITGVQAEDEAVYFCGNDDYSSDSGYVGVFGAGTTLTVL	0.06	0.06	0.06	0.05	1.5	0.06	no binding	no binding	no binding	no binding	no binding	no binding	binds	binds	no binding	binds	binds	no binding	–	–
anti-FAM19A5 antibody 2-13 (antibody, V domains shown, Chicken-derived scFv clone; also called Anti-FAM19A5 ("2-13")) VH: AVTLDESGGGLQTPGGALSLVCKASGFTFSSHGMFWVRQTPGKGLEYVAEITNDGSGTNYGSAVKGRATISRDNGQSTVRLQLNNLRAEDTGTYFCARSTYECPGGFSCWGDTGQIDAWGHGTEVIVSS VL: ALTQPSSVSANPGETVKITCSGGSYSYGWFQQKSPGSALVTVIYWDDERPSDIPSRFSGALSGSTNTLTITGVQADDEAVYFCGTEDISGTAGVFGAGTTLTVL	0.06	0.05	0.06	0.06	0.05	0.06	no binding	no binding	no binding	no binding	no binding	binds	binds	binds	binds	binds	no binding	no binding	no binding	–
anti-FAM19A5 antibody 1-28 (antibody, V domains shown, Chicken-derived scFv clone; also called Anti-FAM19A5 ("1-28")) VH: AVTLDESGGGLQTPGGALSLVCKASGFDFSDYGMGWVRQAPGKGLEWVAAIRSDGSNPSYGSAVKGRATISKDNGRSTVRLQLNNLRAEDTATYYCAKDGNGYCALDAYRSGGYSCGVYPGSIDAWGHGTEVIVSS VL: ALTQPSSVSANLEGTVEITCSGSGYGYGWYQQKSPGSAPVTVIYQNDKRPSDIPSRFSGSKSGSTGTLTITGVQVEDEAVYYCGSEDSSTLAGIFGAGTTLTVL	–	–	–	–	–	–	–	–	–	–	–	binds	no binding	binds	binds	binds	binds	binds	–	binds
anti-FAM19A5 antibody 3-2 (antibody, V domains shown, The text reports one result for both formats, so one molecule is written here; also called h3-2; m3-2) VH: not shown VL: ALTQPSSVSANPGETVKITCSGGGSYAGSYYYGWYQQKAPGSAPVTLIYESNKRPSDIPSRFSGSTSGSTATLTITGVQADDEAIYYCGSWDSSNGGIFGAGTTLTVL	–	–	3.3	–	–	–	–	–	–	–	–	binds	no binding	binds	binds	binds	binds	binds	–	–
